# Reference: the supplement of paper PMC7125110
# ± gives the standard error. Fewer inactive variants are shown than the library holds.
# B1: glmS ribozyme (parent)
# chain: AUAAAAGCGCCAGAACUACAGAAAUGUAGUUGACGAGGAGGAGGUUUAUCGAAUUUUCGGCGGAUGCCUCCAAA
# Tests used:
# Conditions in all cases: with glucosamine-6-phosphate
# [1] = variants of: B1; assay: self-cleavage kobs at 160 uM GlcN6P; higher = faster cleavage; RNA array
# Method in brief: (§1)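 Glucosamine-6-phosphate in HEPES/KCl/Mg(OAc)2 buffer, at 40 μM to 10 mM, was flowed over barcoded ribozyme variants transcribed in situ by E. coli RNA polymerase on sequenced MiSeq chips. Tracking was through a hybridised Cy3 probe at 37 °C. kobs, kcat and KM came from exponential decay fits and weighted Michaelis–Menten fits of normalised per-tile medians.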
# [2] = variants of: B1; assay: self-cleavage kobs at 640 uM GlcN6P; higher = faster cleavage; RNA array
# Method in brief: as §1
# [3] = variants of: B1; assay: self-cleavage kobs at 2500 uM GlcN6P; higher = faster cleavage; RNA array
# Method in brief: as §1
# [4] = variants of: B1; assay: self-cleavage kobs at 10000 uM GlcN6P; higher = faster cleavage; RNA array
# Method in brief: as §1
Variant,self-cleavage kobs at 160 uM GlcN6P [1] [s⁻¹],self-cleavage kobs at 640 uM GlcN6P [2] [s⁻¹],self-cleavage kobs at 2500 uM GlcN6P [3] [s⁻¹],self-cleavage kobs at 10000 uM GlcN6P [4] [s⁻¹]
A6G A14U A48G G63U,< 1e-05,< 1e-05,< 1e-05,
A14C G41A C70U,,0.00173 ± 0.00026,0.00489 ± 0.0012,0.0111 ± 0.0021
A12U A48C C58A,,< 1e-05,< 1e-05,
G38U G41A U47C,,< 1e-05,< 1e-05,
A12C G63U,< 1e-05,< 1e-05,,< 1e-05
G9A G35A C58U C71U,,< 1e-05,,
A6U C34G U47G C67U C68A,,0.000407 ± 0.00013,8.02e-05 ± 2.6e-05,
C8G U47G U54A G63U,< 1e-05,< 1e-05,< 1e-05,
C10G C11A C16A C58G C71G,,0.00176 ± 0.00062,0.000241 ± 0.0001,
G59A G62U,< 1e-05,,< 1e-05,
A33C U45G U55C U57C A64U,< 1e-05,< 1e-05,< 1e-05,
G13C G37A G62A,,< 1e-05,< 1e-05,< 1e-05
A6C U31C C70A,,7.34e-05 ± 3e-05,,
C10A C16U G35A,,< 1e-05,< 1e-05,
A14U C50U G51U,< 1e-05,< 1e-05,< 1e-05,< 1e-05
C50U U56C C67U,< 1e-05,,,
G7U A12G A48U G63U,,< 1e-05,,
C10U A39C G41A U46A,,< 1e-05,< 1e-05,
U45C A53U C67G,,0.00389 ± 0.0016,,
G7U A12U C67U,< 1e-05,< 1e-05,,
C11U G32U A42U,< 1e-05,,< 1e-05,
C50A G51U,,< 1e-05,,< 1e-05
G37C G43C A52C,< 1e-05,,< 1e-05,

Variant,self-cleavage kobs at 160 uM GlcN6P [1] [s⁻¹],self-cleavage kobs at 640 uM GlcN6P [2] [s⁻¹],self-cleavage kobs at 2500 uM GlcN6P [3] [s⁻¹],self-cleavage kobs at 10000 uM GlcN6P [4] [s⁻¹]
U30C U45G U56G C68G,,< 1e-05,< 1e-05,
A36U U65C,< 1e-05,,,
C8U A42U A64C U69C,< 1e-05,< 1e-05,,
U49A U54A C70G,4.17e-05 ± 1.8e-05,,,
C11A U46G,< 1e-05,< 1e-05,,4.72e-05 ± 2.1e-05
A12U A48C,,0.000142 ± 2.1e-05,0.000341 ± 5.1e-05,
G44A U45G U49A C50G,,< 1e-05,< 1e-05,
G40U G43C C68G,0.000486 ± 0.00015,0.000552 ± 0.00012,0.00105 ± 0.00026,
C8A C11U A36G,,< 1e-05,< 1e-05,
G13U G37C U56C C67A C71U,,< 1e-05,,
C16G G63U,,< 1e-05,< 1e-05,< 1e-05
U47A G60C U69C,,0.00785 ± 0.0036,,
G9C U46G C67G,< 1e-05,,,
G7U C71U,< 1e-05,,,< 1e-05
C10A U47G,,< 1e-05,< 1e-05,
A14U U49C U57G C70G,9.25e-05 ± 2.7e-05,6.79e-05 ± 2.7e-05,6.68e-05 ± 2.2e-05,
A12C A14G C34G G38U U49G A64G,,< 1e-05,< 1e-05,
C34U G35C,< 1e-05,,< 1e-05,< 1e-05
C10A U31C U57A A64U,< 1e-05,,,
C50G G62U G66C C70A,7.6e-05 ± 1.6e-05,0.000118 ± 2.5e-05,,
U31A A36C G37U U49C,,< 1e-05,,
C11A A39C U49C,< 1e-05,,< 1e-05,
C10G C19A A48C,< 1e-05,< 1e-05,,

Variant,self-cleavage kobs at 160 uM GlcN6P [1] [s⁻¹],self-cleavage kobs at 640 uM GlcN6P [2] [s⁻¹],self-cleavage kobs at 2500 uM GlcN6P [3] [s⁻¹],self-cleavage kobs at 10000 uM GlcN6P [4] [s⁻¹]
G9U U30C U65G C70U,,< 1e-05,,
A15C G29U C67A,9.38e-05 ± 3.4e-05,0.000156 ± 2.9e-05,0.000163 ± 4.2e-05,
G9U A14C A64U C68A,,< 1e-05,< 1e-05,
U30A U56C G60U A64C,< 1e-05,< 1e-05,,
A15C C16A C67U,4.39e-05 ± 2.1e-05,0.000115 ± 2.9e-05,0.000111 ± 4e-05,
G43A U45A C61G,< 1e-05,< 1e-05,,
A6U G44U C61U,< 1e-05,< 1e-05,< 1e-05,
G9U G32C C34G C58U C68G,,0.000182 ± 7.9e-05,,
C11A C16A,< 1e-05,,,2.86e-05 ± 1e-05
A36U A48G,< 1e-05,< 1e-05,,< 1e-05
C8U G32A,< 1e-05,,< 1e-05,< 1e-05
G43A G44A,< 1e-05,< 1e-05,< 1e-05,< 1e-05
C8A A48C C68G,< 1e-05,< 1e-05,,
C10A U31G A42U,< 1e-05,< 1e-05,< 1e-05,
A14U C34A G60A C61A,< 1e-05,,,< 1e-05
C16G A36G G40A G63U,,< 1e-05,< 1e-05,
A36G G38U C50A G62A,,< 1e-05,,
G43C U55G U56G C67G,< 1e-05,,,
C16U U57G C68U,,3.89e-05 ± 1.6e-05,,
A15U G40C A52U,,< 1e-05,,
U47C U55A,,0.00113 ± 0.00019,0.00273 ± 0.00077,0.00496 ± 0.0011
G38A C61U C70G,< 1e-05,,,
A15C G32C A48C,< 1e-05,,,

Variant,self-cleavage kobs at 160 uM GlcN6P [1] [s⁻¹],self-cleavage kobs at 640 uM GlcN6P [2] [s⁻¹],self-cleavage kobs at 2500 uM GlcN6P [3] [s⁻¹],self-cleavage kobs at 10000 uM GlcN6P [4] [s⁻¹]
U55G G62A G63U,,< 1e-05,,< 1e-05
G32C C34A C61U C67U,< 1e-05,,,
G59U G60U G62A,< 1e-05,,< 1e-05,
C34U U56G,< 1e-05,,< 1e-05,
G9A A52U C70U,< 1e-05,,,
U56C U57G C58A,0.00183 ± 0.0009,,,
C11U C34U G66C,< 1e-05,,< 1e-05,
C34G U47A,< 1e-05,< 1e-05,< 1e-05,
G38A G62U G66C,,< 1e-05,,
A36U G40U,< 1e-05,< 1e-05,,< 1e-05
C34U C50G C68A,9.29e-05 ± 2.9e-05,,9.73e-05 ± 2.8e-05,
C10A G41C A48U,,< 1e-05,< 1e-05,
G38C A48C,,< 1e-05,< 1e-05,< 1e-05
A12U A48G U49G,,6.79e-05 ± 3.2e-05,,
U30G C34A C68A,,< 1e-05,,
C11G G43C U45C,,< 1e-05,< 1e-05,
G9A A36C G41U A64G C70U,< 1e-05,< 1e-05,< 1e-05,< 1e-05
G9A G32C C61U,,< 1e-05,,< 1e-05
A12G G29U G37C,,< 1e-05,< 1e-05,
A33U C34G U49A A53U,,< 1e-05,,< 1e-05
A6G G9U C58A,,< 1e-05,< 1e-05,< 1e-05
G35C G38A A64G,,< 1e-05,< 1e-05,
G37U G38C U49G U56G,,< 1e-05,,

Variant,self-cleavage kobs at 160 uM GlcN6P [1] [s⁻¹],self-cleavage kobs at 640 uM GlcN6P [2] [s⁻¹],self-cleavage kobs at 2500 uM GlcN6P [3] [s⁻¹],self-cleavage kobs at 10000 uM GlcN6P [4] [s⁻¹]
G13C G37U G43C,,< 1e-05,< 1e-05,
A14C G29U C50U A52G C58G,0.000474 ± 0.00018,,7.98e-05 ± 3.9e-05,
A12G G51A,< 1e-05,< 1e-05,,< 1e-05
G60A C61U,< 1e-05,< 1e-05,< 1e-05,< 1e-05
C8U G29U G41A G44C,< 1e-05,,,
A14C C16A U31C G35C U55G,< 1e-05,,< 1e-05,< 1e-05
C8U U47C A48C C67G,< 1e-05,< 1e-05,< 1e-05,
A33G G38U U49C C71U,,< 1e-05,< 1e-05,
C10U A20G U55C,< 1e-05,,,
A15G U31A U47G,,0.000471 ± 0.00011,0.00142 ± 0.0005,
G37U G59U G63A,,< 1e-05,< 1e-05,
A6G U31A A36G A48U,,< 1e-05,,
G9U G40A,< 1e-05,< 1e-05,< 1e-05,< 1e-05
U31A C61G,< 1e-05,,,< 1e-05
G7A A15U,< 1e-05,,,
U31A G35C A48G,< 1e-05,< 1e-05,,
G7U C50A,< 1e-05,< 1e-05,,< 1e-05
A14U A15G G37A,,0.000119 ± 2.8e-05,0.000224 ± 4.9e-05,
C8A U57A,< 1e-05,< 1e-05,< 1e-05,< 1e-05
G44U C61A C67U C70G,< 1e-05,< 1e-05,< 1e-05,
